Measurements reported in publication PMC5352738, “Characterization of three pyranose dehydrogenase isoforms from the litter-decomposing basidiomycete Leucoagaricus meleagris (syn. Agaricus meleagris)” (Applied Microbiology and Biotechnology, 2016).

Columns and labels:
[1] = substrate: CO[C@H]1O[C@H](CO)[C@@H](O)[C@H](O)[C@H]1O; assay: purified protein; assay type: biochemical, Macropsalliota meleagris; conditions: electron donor, 0.2 mM ferrocenium, 50 mM Na phosphate pH 7.5, 30 °C
[2] = substrate: O=C1C=CC(=O)C=C1; assay: purified protein; assay type: biochemical, Macropsalliota meleagris; conditions: electron acceptor, 25 mM D-glucose, 100 mM Na acetate pH 4.0, 30 °C

Protein	Km [1] [µM]	kcat [1] [s⁻¹]	kcat/Km [1] [M⁻¹ s⁻¹]	Km [2] [µM]	kcat [2] [s⁻¹]	kcat/Km [2] [M⁻¹ s⁻¹]
AmPDH1 (Macropsalliota meleagris) (protein, full-length pdh1 (602 aa precursor) in pPICZB-His6, His6-tag kept, secreted from Pichia pastoris X33; N-glycosylated monomer, ~65 kDa deglycosylated; covalent FAD) AITYQHPDDLPSGVDYDFIVAGGGTAGLVVASRLSENSNWKVLVIEAGPSNKDAFVTRVPGLASTLGAGSPIDWNYTTIPQDGLDGRSLDYPRAKILGGCSTHNGMVYTRGSKDDWNSWAGIIGDQGLGWDSILPAIKKAEKFTQDFTDQSVKGHIDPSVHGFDGKLSVSAAYSNISFNDLLFETTKELNAEFPFKLDMNDGKPIGLGWTQYTIDNHAERSSSATSYLESTGDNVHVLVNTLVTRVLSASGNGTDFRKVEFAVDANSPKKQLEAKKEVIVAGGVIASPQILMNSGIGERKVLQAVGIDTLIDNPSVGKNLSDQGATSVMFDTTLPSTDFDVDAALTEWTNSHTGPLARGARLNHLTFVRLPDDKLNGQDPSSGKNSPHIEFQFAQITPQVPTLGVPKQAPLPAANSYRLLLQLAVVNLYSISRGSISLSDNNPFTYPLIDLNMFKEDIDIAILREGIRSAGRMFSSKAFKNSVNKFVYPPADATSDEDLDAFLRSSTFSYVHGVGTLSMSPKGASWGVVNPDFKVKGTSGLRVVDASVIPHAPAAHTQLPVYAFAEYASALIAKSYN	660 ± 50	41.5 ± 0.8	62900	–	–	–
AmPDH2 (Macropsalliota meleagris) (protein, full-length pdh2 (600 aa precursor) in pPICZB-His6, His6-tag kept, secreted from Pichia pastoris X33; N-glycosylated, ~65 kDa deglycosylated; covalent FAD) AITYQHPDDLPSGVDYDFIVAGGGTAGLVVASRLSENSKWNVLVIEAGPSNKDTPETRIPGLADNLPGTRTDWNYTTIPQDALGGRSLNYSRAKVLGGCSTHNGMVYTRGPRDDWNYWAEITDNQALKWDNVLPIMKNTEKFSQDFLDQSMEGHIDPSVHGFDGMLSVVASYTNVSFNNLLLETTRELSDEFPFKLDLNDGKPHGLAWTQYTIDQGAERSSSATSYLESTGDNVHVLVNTHVTRIVSAGNETDFRSVEFAVDANSPKKVLTAKKELILSAGVIASPQILMNSGIGGREELQAIGVDTLIDNPSVGRNLSDQASTLLMFDTTLPNTDYDVAAALTEWDNSRSGPMAYAARLNHLTWVRLPDDKLSGSDPSSGHDSPHIEFQFRQISHQLPPADVPNQVQLPDPDSIGVVLQFSVVNLYSISLGSVTLNNNDPFADPIIDLNMFGDQKDIAILREGVRSARRMFSSQAFKNVVHETVYPPAGVTSDEDLDAFLRTSAVSYLHGVGTLSMSPHSASWGVVNPDFRVKGTTGLRVVDASVIPRAPAGHTQIPVYTFAEHASALIADSYN	2000 ± 60	85 ± 0.6	42500	32.5 ± 1.9	23.4 ± 0.5	780000
AmPDH3 (Macropsalliota meleagris) (protein, full-length pdh3 (600 aa precursor) in pPICZB-His6, His6-tag kept, secreted from Pichia pastoris X33; strongly N-glycosylated, ~65 kDa deglycosylated; standard yellow form with covalent FAD) AITYQHPDDLPSDVDYDFIVAGGGTAGLVVASRLSENPDWNILVIEAGPSNKDAPETRVPGLAGSLPASRTDWNYTTIPQDALGGRSLNYSRAKVLGGCSSHNSMVYTRGSKDDWNHWADITGDQGLSWDSILPVMKKAEKFSKDFSNQSVDGHIDPSMHGHDGLLSVVSSYTNVSFNDLLLETTKELSDEFPFKLDLNDGNPHGLAWTQYTIDHRAERSSSATSYLESTRDNVHVLVNSRVTRIFSAGNGTDFRSVEFAVDANSPKKVLTAKKEVILSAGVIASPQVLMNSGIGGREELQAIGVDTLIDNPSVGKNLSDQAATLLMFDTTLPNTDYDVAAALTEWEDSRSGPMAYGARLNHLTWVRLLDDKLNGSDPSSGKNSPHIEFQFMQISHQLPPADAPNQVKLPDPDSIGAVLLLAVVNLYSVSHGSIILNDNDPFANPMIDLNMFGDQKDIAILREGVRSARRMFSSQAFKDVVNGTVYPPADVTSDEDLDAFLRTSAISYWHGVGTLSMSPQNASWGVVDPDFRVKGTSGLRVVDASVIPYAPAGHTQVPVYTFAEHASVLIAKSYA	950 ± 60	1 ± 0.01	1050	1880 ± 140	3.57 ± 0.11	1890
